These results are taken from patent US20250075191A1, “MODIFIED BIOLUMINESCENT ENZYMES” (Light Bio, Inc., priority 2023, published 2025).

The subject of one data set is Pichia pastoris GS115. Description: Luminescence imaging of transformed yeast after addition of luciferin, hispidin or caffeic acid. Format: cell-based. The procedure: Integration of plasmids into the genome of Pichia pastoris GS115 was targeted at the GAP promoter locus. Linearized plasmids were used for the transformation of electrically competent yeast cells. Colonies were selected using […] of G418 or 200 mg/ml of hygromycin or 50 mg/ml of zeocin. PCR-based screening of yeast colonies was done by heating up colonies in 10 μl of 20 mM NaOH at 90° C. for 7 min and then using 1 μl of the resulting solution for direct PCR. For luminescence imaging, yeast culture grown on plate was resuspended in 50 μL of 1M sorbitol. 5 μL of the suspension was then added in 3 replicates to YPD agar plates lacking antibiotics. […] Imaging was performed in Fusion Pulse (Vilber, France), with exposure of 0.1 or 5 sec every 3 or 5 min for 1.0-1.5 hours—for caffeic acid treatment, with exposure of 20 sec for 20 mins—for hispidin treatment, with exposure of 0.5 sec every 10 sec for 10 mins in case of luciferin treatment.
Processing of images was performed using FiJi ImageJ distribution (version 1.53t) 20 and custom Python scripts (Python version 3.8). For luminescence quantification mean values in the region of interest after background subtraction were used. Background subtraction was performed using the following formula: signal=signalraw−(backgroundmean−3*backgroundSD).

Data set [1] relates to HEK293NT or HEK293 cell lines. Nature of the data set: Pathway luminescence in transfected mammalian cells in the presence of caffeic acid. Format: cell-based. The settings on record: gene set expressing nnLuz_WT, mcitHispS, nnCPH, and NpgA. On the procedure: In different sets of experiments, HEK293NT or HEK293 cell lines were seeded in 96-well plates (ibidi, ibiTreat μ-Plate 96 Well Black). Cells were transfected with a mixture of the five plasmids that encoded variants of nnLuz, and nnH3H, along with nnHispS or mcitHispS, nnCPH, and NpgA by PolyFect Transfection Reagent (QIAGEN) according to the manufacturer's protocol, using 2 μl PolyFect per well and a mixture of plasmids containing 44 ng of plasmid expressing nnLuz, and equivalent amounts of the other four plasmids according to their size. Transfected cells were grown in DMEM (PanEco) supplemented with 10% fetal bovine serum (HyClone), 4 mM L-glutamine, 10 U/ml penicillin and 10 µg/ml streptomycin, at 37° C. and 5% CO2. Twenty-four hours after transfection, the medium was changed to 25 μM or 100 μM caffeic acid solution (0.1% DMSO in DPBS) and luminescence was imaged for 23 minutes by IVIS Spectrum CT (PerkinElmer) at 37° C. every 9 seconds with open filter, binning of 16 and exposure of 5 seconds. The number of independent replicates is included in the figure's legends.

Data set [2] can be described thus: Luciferase luminescence in E. coli lysates after luciferin addition. Format: biochemical. The settings on record: 100 μM luciferin, maximal brightness. The source says: A library of amino acid substitutions was created applying mutagenesis to a gene encoding the luciferase derived from Neonothopanus nambi (SEQ ID NO: 8). pF4Ag shuttle vector (Promega) was used for gene expression in E. coli (T7 promoter-driven expression) and mammalian cells (CMV promoter-driven expression). The pF4Ag vector backbone introduces a C-terminal 3×-FLAG-HiBiT tag. Site-directed mutagenesis was used to substitute consensus amino acids at selected position in the luciferase sequence. Gene expression was performed in the E. coli strain KRX (Promega), which enables rhamnose-inducible expression of T7 RNA polymerase.
Colonies (in triplicate) were used to inoculate LB broth containing ampicillin ([…]) and cultures grown overnight in 96-well microtiter plates (20 hours, 37° C.). Cultures were diluted into fresh LB containing 0.1% rhamnose and ampicillin and grown for 3 hours at 37° C. 50 μl of the induced culture was lysed for 5 minutes at ambient temperature with a reagent consisting of 25 mM HEPES pH 7.5 and 0.3×PLB (E1941 Promega). 50 μl of lysate was combined with 50 μl luciferin (100 μM) in the lysis buffer and samples were measured for total luminescence using a GloMax®-Multi+luminometer. (Promega).

The subject of the next data set is HEK293 cells. Nature of the data set: Luciferase luminescence by transient expression in HEK293 cells after luciferin addition. To be noted: living HEK293 cells, luciferin 740 μM final concentration. The data set is classed as cell-based. On the procedure:
Production of luminescence by nnLuz_v3 was measure in E. coli lysates by the above method, and in mammalian cells (HEK293 cells). The HEK293 cells were transfected using the FugeneHD transfection reagent (Promega) according to the manufacturer's instructions. Cells were grown overnight under CO2 at 37° C. in 96-well white assay plates. For luminescence measurements, media was removed and replaced with 100 μl of CO2 independent media (Life Technologies 18045) containing 10% FBS. 33 μl of luciferin was added to cells (740 μM final concentration). The luminescence was measured using a GloMax-Multi+luminometer (Promega).

Data set [3] in a line: Enzyme thermostability in cleared E. coli lysates incubated at 22° C. To be noted: then 100 μM luciferin. The data set is classed as biochemical. On the procedure: To assess the effect on enzyme thermostability by the amino acid substitutions, lysates of transformed E. coli were prepared by sonication and cleared by centrifugation. The cleared lysates were diluted 1:100 into Tris-buffered saline with 0.01% BSA and 0.1% n-dodecyl β-D-maltoside. 100 μl of each diluted lysate were added to a 96-well PCR plate. Samples were incubated at 22° C. and at various time points aliquots were placed on ice. When all of the samples were processed, 50 μl of each was combined with 50 μl of 100 μM luciferin in Tris-buffered saline with 0.01% BSA and 0.1% n-dodecyl β-D-maltoside. Samples were immediately placed in a GloMax®-Multi+luminometer (Promega) to measure bioluminescence.

Data set [4] concerns yeast cells (P. pastoris). Nature of the data set: Stability of luciferase within yeast cells after 10 min incubation at different temperatures. The data set is classed as cell-based. To be noted: then luciferin. The procedure: To evaluate stability of nnLuz_WT and nnLuz_v4 within yeast cells, strains expressing nnLuz WT or nnLux_v4 were grown on plates for 24 hours, then resuspended in PBS to final OD (600 nm)=5 and 50 μl was placed in wells of a 96-well PCR plate. Different portions of the plate were incubated at different temperatures for 10 minutes using a gradient thermal cycler. The plate were then placed on ice for 5 minutes and 10 μl of 500 μM luciferin (2% DMSO, 10 mM thioglycolic acid, 0.1% DDM in DPBS) were added to each well. Then 25 μl of suspension from each well was transferred to a black 96-well plate containing 0.2 M sodium phosphate buffer with 0.5 M Na2SO4,pH=8.

A short description of data set [5]: Michaelis-Menten kinetics of HiBiT-fused luciferase in yeast lysates. The data set is classed as biochemical. To be noted: fitted Michaelis-Menten model. The source says:
To quantify the activity of nnLuz_v4 relative to the parental nnLuz_WT, genetic fusions were made with the HiBiT tag. The HiBiT tag is a small bioluminescent marker that may be appended onto other proteins, thereby providing a mechanism for measuring relative protein concentration. By fusing the tag onto the C-terminus of luciferase, variability in protein concentration can be normalized across independent samples.
Yeast strains expressing fusions of nnLuz_WT and nnLuz_v4 with HiBiT were inoculated into YPD medium and cultured at 30° C. with 220 rpm for 18-20 hours. Then 4 ml of each yeast suspension were centrifuged at 5000 g (4° C.) and resuspended in 400 μL of 100 mM MOPS (pH=7.5), 4 mM EDTA, 2 mM TCEP, 1 mM PMSF. […]
Samples were diluted 25 fold in the same buffer as used for lysis and concentrated to a volume of 200 μL using Amicon Ultra-15 Centrifugal Filter Unit 10 kDa (Millipore). […] Luminescence was measured in Tecan Spark plate-reader with exposure of 500 ms for 15 min. Activity of each variant was normalized to the expression level of HiBiT, as quantified with HiBiT lytic reagent (Promega N3030).
To quantify luminescence, intensity values of the wells were normalized by the integral values for HiBiT luminescence kinetics. Then, the integral signal for each sample was calculated. […]
(In general: The HiBiT peptide binds its large partner to form an active luciferase.)

B1: nnH3H_v2: N. nambi hispidin hydroxylase with D37E, V181I, S323M, and M385K (SEQ ID NO: 6) (protein, listed as Neonothopanus nambi)
chain: MASFENSLSVLIVGAGLGGLAAAIALRRQGHVVKIYESSSFKAELGAGLAVPPNTLRSLQQLGCNTENLNGVDNLCFTAMGYDGSVGMMNNMTDYREAYGTSWIMVHRVDLHNELMRIALDPGGLGPPATLHLNHRVTFCDVDACTVTFTNGTTQSADLIVGADGIRSTIRRFVLEEDVTVPASGIVGFRWLVQADALDPYPELDWIVKKPPLGARLISTPQNPQSGVGLADRRTIIIYACRGGTMVNVLAVHDDERDQNTADWSVPASKDDLFRVFHDYHPRFRRLLELAQDINLWQMRVVPVLKKWVNKRVCLLGDAAHAMLPTLGQGFGMGLEDAVALGTLLPKGTTASQIETRLAVYEQLRKDRAEFVAAESYEEQYVPEKRGLYLRSKELRDRVMGYDIKVESEKVLETLLRSSNSA
Take B1: the “bioluminescence relative to cells expressing nnH3H_WT and nnLuz_WT” value with Pichia pastoris GS115 (co-expressed with nnLuz_WT, addition of 100 μM hispidin) was “greater bioluminescence”. Moreover, the “greater luminescence relative to nnH3H_WT” value in the data set on Pichia pastoris GS115 (combined with nnLuz_WT, mcitHispS and NpgA, caffeic acid) is recorded as 3.9 fold. Moreover, the “greater luminescence compared with nnH3H_WT” value in data set [1] amounted to 2.5 fold.

B2: nnLuz_v3: N. nambi luciferase with substitutions T99P, T192S, A199P combined (SEQ ID NO: 2) (protein, listed as Neonothopanus nambi)
chain: MRINISLSSLFERLSKLSSRSIAITCGVVLASAIAFPIIRRDYQTFLEVGPSYAPQNFRGYIIVCVLSLFRQEQKGLAIYDRLPEKRRWLADLPFREGPRPSITSHIIQRQRTQLVDQEFATRELIDKVIPRVQARHTDKTFLSTSKFEFHAKAIFLLPSIPINDPLNIPSHDTVRRTKREIAHMHDYHDCSLHLALAPQDGKEVLKKGWGQRHPLAGPGVPGPPTEWTFLYAPRNEEEARVVEMIVEASIGYMTNDPAGKIVENAK
Regarding B2, in data set [2], the “production of bioluminescence relative to parental nnLuz” value is listed as “substantially greater”. Also, the “production of bioluminescence relative to parental nnLuz_WT” value in the data set on HEK293 cells is listed as “substantially greater”. In data set [3], the “enzyme stability relative to unmodified parental luciferase” value is “greater enzyme stability”.

B3: nnLuz_v4 (protein, listed as Neonothopanus nambi)
chain: MRSTISLSSLLERLSKLSSRSIAITCGVVLASAIAFPIIRRDYQTFLEVGPSYAPQNFRGYITVCVLSLFRQEQKGLAIYDRLPEKRRWLADLPFREGPRPSITSHIIQRQRTQLVDQEFATRELIDKVIPRVQARHTDKTFLSTSKFEFHAKAIFLLPSIPINDPLNIPSHDTVRRTKREIAHMHDYHDCSLHLALAPQDGKEVLKKGWGQRHPLAGPGVPGPPTEWTFLYAPRNEEEARVVEMIVEASIGYMTNDPAGKIVENAKGS
On to B3, for which the “bioluminescence relative to cells expressing nnLuz_WT” value with Pichia pastoris GS115 (addition of 50 μM luciferin) is “greater bioluminescence”. Further, the “greater luminescence relative to nnLuz_WT” value with Pichia pastoris GS115 (combined with nnH3H_v2, mcitHispS and NpgA, caffeic acid) worked out at 1.9 fold. Also, the “reduction of luminescence after incubation at 40° C.” value in data set [4] (10 min at 40° C.) is given as “no loss of activity”. In addition, in data set [4] (10 min at 45° C.), the “reduction of luminescence after incubation at 45° C.” value came to 3 fold. In addition, in data set [5], the “Km relative to nnLuz_WT” value is listed as “similar”. For the same molecule, in data set [5] (normalized to HiBiT), the “higher Vmax relative to nnLuz_WT” value was 4.2 fold.
